The subject of one assay is human CRHR2. Description: CRH-induced luciferase reporter blocking assay, CHO-CRE-hCRHR2 cells. Type of assay: cell-based. As for the experimental part: To create CHO-CRE-hCRHR1, -hCRHR2, -mCRHR1, and -mCRHR2 reporter cell lines, pcDNA3.1-hCRHR1, -hCRHR2, -mCRHR1, and -mCRHR2 were introduced into CHO-CRE cells established above by electroporation as described above. Selection antibiotics hygromycin at 500 μg/ml and G418 at 1,000 μg/ml were employed. Individual established stable cell lines were characterized by both CRH and forskolin stimulation.
Activated GPCR proteins increase production of the intracellular cAMP. CHO-CRE-human CRHR1 stable clone 11 was generated by introduction of pcDNA3.1-human CRHR1 under the selection of G418 and hygromycin. Human CRHR1 expression in CHO-CRE-hCRHR1 Clone 11 was confirmed by flow cytometry (data not shown). To further validate that the cell line was functional, CHO-CRE-hCRHR1 Clone 11 cells were treated with forskolin and CRH peptide. […] Subsequently CHO-CRE-hCRHR2 Clone 32, -mCRHR1 Clone 22, and -mCRHR2 Clone 8 cell lines were established using similar methodology and validated with CRH treatment (data not shown).
Blocking CRHR1 by small molecules or neutralization of CRH peptide can reduce luciferase expression if the CRH-CRHR1 system works in CHO-CRE-hCRHR1 cells. Antalarmin, a small molecule CRHR1 antagonist, blocked CRH-mediated luciferase expression in CHO-CRE-hCRHR1 Clone 11 (data not shown). Furthermore, sheep anti-CRH polyclonal antibody reduced CRH-mediated luciferase expression in these cells (data not shown). Likewise, sheep anti-CRH polyclonal antibody blocked CRH-mediated luciferase expression in CHO-CRE-hCRHR2, CHO-CRE-mCRHR1, and CHO-CRE-mCRHR2 cells (data not shown).
(§1) Cells were digested by trypsin-EDTA (Life technologies, Cat #:12604-013), centrifuged at 1,000 rpm for 5 min, resuspended in growth medium, counted using a cell counter, seeded at a concentration of 5,000 cells per 100 μl in 96-well flat plates, and incubated overnight. 50 μl of 4× serially diluted antibodies was added (8 points, 1/4 diluted by growth medium) to plates containing CHO-CRE-hCRHR1 cells, and 50 μl of 4×CRH (4× is 2 nM, final is 0.5 nM) was added. Similarly, 4×CRH (4× is 0.4 nM, final is 0.1 nM) was added to CHO-CRE-hCRHR2 cells and CHO-CRE-mCRHR1 cells, and 4×CRH (4× is 20 nM, final is 5 nM) was added to CHO-CRE-mCRHR2 cells. Next, plates were incubated 4-6 hours at 37° C. in a CO2 incubator. 60 μl of culture medium was removed, to which was added 60 μl of Bio-Glo luciferase, followed by incubation for 10 min at RT. Plates were read in a luciferase plate reader (EnVision, PerkinElmer).
(In a reporter assay the amount or activity of a reporter protein is the signal.)

The subject of the next assay is mouse CRHR2. Description: CRH-induced luciferase reporter blocking assay, CHO-CRE-mCRHR2 cells. It counts as cell-based. As for the experimental part: To create CHO-CRE-hCRHR1, -hCRHR2, -mCRHR1, and -mCRHR2 reporter cell lines, pcDNA3.1-hCRHR1, -hCRHR2, -mCRHR1, and -mCRHR2 were introduced into CHO-CRE cells established above by electroporation as described above. Selection antibiotics hygromycin at 500 μg/ml and G418 at 1,000 μg/ml were employed. Individual established stable cell lines were characterized by both CRH and forskolin stimulation. […]
as §1

Another assay has as its target T1, biotinylated CRH (Homo sapiens, UniProt P06850).
T1 construct: purchased GL Biochem 784751
T1 sequence (P06850 154-194): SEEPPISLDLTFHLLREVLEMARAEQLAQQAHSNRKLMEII
As to the kind of experiment: Affinity determination with Octet. Type of assay: binding. As for the experimental part: Octet® Red 96e was used for affinity measurement. Octet® running buffer was prepared by diluting kinetics buffer 10× (Fortebio, Cat #18-1105) in PBS according to the manufacturer's instructions. Two columns of SA sensors (Fortebio, Cat #18-5019) were hydrated in running buffer for 10 mins, one for ligand capturing and the other for reference. Antibodies were 2-fold diluted and added into a 96-well plate. 30 nM biotinylated CRH (GL Biochem, Cat #784751) was captured by the first column of SA sensors for 20 seconds, while reference sensors were dipped into buffer wells. After a 60-second baseline step, sensors were dipped into analyte and buffer wells successively, with the association and dissociation time of 180 seconds and 800 seconds, respectively. Sensors were regenerated in glycine pH1.5 (Cytiva, Cat #BR-1003-54) before the next cycle. […] Signals of reference wells and reference sensors were subtracted by selecting “Double reference” before data fitting.
(Biolayer interferometry detects binding as a change in optical thickness at a sensor tip.)

The mark [1] stands for this setting: CHO-CRE-hCRHR2 cells, 0.1 nM CRH.

Positions count from the first letter of the chain named.

B1: PR302341-21: humanized variant of Series 10 mAb PR302341; VH SEQ ID NO: 284, VL SEQ ID NO: 340 (antibody, V domains shown)
VH: QVQLVQSGAEVKKPGASVKVSCKASGYTFTDYFMKWVRQAPGQRLEWMGVINPNNGDIFYNQKFKGRVTITVDKSASTAYMELSSLRSEDTAVYYCARGTDRALFAYWGQGTLVTVSS
VL: DVVMTQSPLSLPVTLGQPASISCRSGQSIVHSDGNTYLEWYQQRPGQSPRLLIYKVSNRFSGVPDRFSGSGSGTDFTLKISRVEAEDLGVYYCFQGSHIPWTFGGGTKVEIK
modifications: PR302341-16 VH, PR302341-21 VH, PR302341-24 VH, PR302341-25 VH; PR302341-19 VL, PR302341-20 VL, PR302341-21 VL, PR302341-22 VL,PR302341-23 VL, PR302341-28 VL, PR302341-29 VL, PR302341-2 VL,PR302341-41 VL, PR302341-55 VL, PR302341-56 VL, PR302341-57 VL,PR302341-
For orientation: IC50 means the concentration needed to halve the response being measured. Higher therefore signals weaker potency in that assay. In the case of B1, the concentration for half-maximal inhibition (IC50) was found to be 0.272 nM in the assay with human CRHR2 (setting [1]) and 0.633 nM in the assay on mouse CRHR2 (CHO-CRE-mCRHR2 cells, 5 nM CRH).

B2: PR302341-24: humanized variant of Series 10 mAb PR302341; VH SEQ ID NO: 284, VL SEQ ID NO: 336 (antibody, V domains shown)
VH: B1 VH
VL: B1 VL with S7T, L11S, S48P, S72A
modifications: PR302341-16 VH, PR302341-21 VH, PR302341-24 VH, PR302341-25 VH; PR302341-10 VL, PR302341-24 VL, PR302341-26 VL, PR302341-43 VL,PR302341-44 VL, PR302341-45 VL, PR302341-4 VL
Turning to B2, the IC50 was 0.099 nM in the assay on human CRHR2 (setting [1]) and roughly 0.457 nM in the assay on mouse CRHR2 (CHO-CRE-mCRHR2 cells, 5 nM CRH).

B3: PR302341-23: humanized variant of Series 10 mAb PR302341; VH SEQ ID NO: 286, VL SEQ ID NO: 340 (antibody, V domains shown)
VH: B1 VH with R44G, I70M, A76I, S85R, E89D
VL: B1 VL
modifications: PR302341-18 VH, PR302341-23 VH, PR302341-26 VH, PR302341-27 VH,PR302341-30 VH, PR302341-31 VH, PR302341-42 VH; PR302341-19 VL, PR302341-20 VL, PR302341-21 VL, PR302341-22 VL,PR302341-23 VL, PR302341-28 VL, PR302341-29 VL, PR302341-2 VL,PR302341-41 VL, PR302341-55 VL, PR302341-56 VL, PR302341-57 VL,PR302341-
Take B3: the IC50 was 0.127 nM with human CRHR2 (setting [1]); 1.38 nM with human CRHR2 (Table 9, hCRHR2); 0.501 nM in the assay with mouse CRHR2 (CHO-CRE-mCRHR2 cells, 5 nM CRH); 1.37 nM with mouse CRHR2 (Table 9, mCrhr2).

B4: PR302334-8: humanized variant of Series 9 mAb PR302334; VH SEQ ID NO: 273, VL SEQ ID NO: 332 (antibody, V domains shown)
VH: EVQLVESGGGLVQPGGSLRLSCAASGFTFSTYAMSWVRQAPGKGLEWVASIRSGGTTYYPDSVKGRFTISRDNSKNTLYLQMNSLRAEDTAVYYCTRGIDWGQGTTVTVSS
VL: EIVMTQSPATLSVSPGERATLSCKASQSVNNDVAWYQQKPGQAPRLLIYYASNRYTGIPARFSGSGSGTEFTLTISSLQSEDLAVYFCQQDYSSWTFGGGTKVEIK
modifications: PR302334-10 VH, PR302334-11 VH, PR302334-12 VH, PR302334-14 VH,PR302334-7 VH, PR302334-8 VH, PR302334-9 VH; PR302334-22 VL, PR302334-2 VL, PR302334-8 VL
What is called kon is a measure of how fast the partners come together. Read a high kon as fast association. Turning to B4, in the assay on human CRHR2 (setting [1]), the IC50 was determined as 2.32 nM. This molecule displayed an IC50 in the assay with mouse CRHR2 (CHO-CRE-mCRHR2 cells, 5 nM CRH) of 2.74 nM. Further, in the assay with biotinylated CRH, the “kdis” value is less than 1e-07 s⁻¹ and the association rate constant (kon) turned out to be 14700 M⁻¹ s⁻¹.

B5: PR302334-11: humanized variant of Series 9 mAb PR302334; VH SEQ ID NO: 273, VL SEQ ID NO: 329 (antibody, V domains shown)
VH: B4 VH
VL: DIQMTQSSLSASVSLGDRVTITCKASQSVNNDVAWYQQKPGKAPRLLIYYASNRYTGVPSRFSGSGSGTDFTFTISSLQPEDIATYYCQQDYSSWTFGGGTKVEIK
modifications: PR302334-10 VH, PR302334-11 VH, PR302334-12 VH, PR302334-14 VH,PR302334-7 VH, PR302334-8 VH, PR302334-9 VH; PR302334-11 VL, PR302334-5 VL
B5: in the assay with biotinylated CRH, the “kdis” value is less than 1e-07 s⁻¹ and the “kon” value was found to be 684000 M⁻¹ s⁻¹.

B6: PR302334-25: humanized variant of Series 9 mAb PR302334; VH SEQ ID NO: 275, VL SEQ ID NO: 330 (antibody, V domains shown)
VH: B4 VH with Q13K, S74A, T77S
VL: B5 VL with I83L, Y87F
modifications: PR302334-16 VH, PR302334-24 VH, PR302334-25 VH; PR302334-12 VL, PR302334-25 VL, PR302334-27 VL, PR302334-6 VL
For B6, in the assay with biotinylated CRH, the “kdis” value is less than 1e-07 s⁻¹ and the on-rate constant (kon) is 285000 M⁻¹ s⁻¹.

B7: PR302334: Series 9 anti-CRH mAb from immunized wildtype mice; VH SEQ ID NO: 272, VL SEQ ID NO: 331 (antibody, V domains shown)
VH: EVKLVESGGGLVKPGGSLKLSCAASGFTFSTYAMSWVRQTPEKRLEWVASIRSGGTTYYPDSVKGRFTISRDNARNILYLQMSSLRSEDTAIYYCTRGIDWGQGTLVTVSA
VL: NIVMTQTPKFLLVSAGDRITITCKASQSVNNDVAWYQQKPGQSPKLLIYYASNRYTGVPDRFTGSGYGTDFTFTISTVQAEDLAVYFCQQDYSSWTFGGGTNLEIK
modifications: PR302334-1 VH, PR302334-2 VH, PR302334-3 VH, PR302334-4 VH,PR302334-5 VH, PR302334-6 VH, PR302334 VH; PR302334-14 VL, PR302334-15 VL, PR302334-16 VL, PR302334-17 VL,PR302334-18 VL, PR302334 VL
For B7, the IC50 in the assay on human CRHR2 (setting [1]) came out at 0.803 nM; in the assay on mouse CRHR2 (CHO-CRE-mCRHR2 cells, 5 nM CRH), 0.995 nM. Further, in the assay with biotinylated CRH, the “kdis” value is less than 1e-07 s⁻¹. Besides, in the assay with biotinylated CRH, the “kon” value is 669000 M⁻¹ s⁻¹.

B8: PR302309: Series 7 anti-CRH mAb from immunized wildtype mice; VH SEQ ID NO: 260, VL SEQ ID NO: 317 (antibody, V domains shown)
VH: QIQLVQSGPELKKPGETVKISCKASGYTFTNYGMNWVKQAPGKVLKWMGWINTYTGEPIYTDDFKGRFAFSLETSASTAYLQINNLKNEDTATYFCSRSTMITTGGVFAYWGQGTLVTVSA
VL: DVLMAQTPLSLPVSLGDQASISCRSSQTIVHSDGNTYLEWYLQKPGQSPKLLIYKVSNRFSGVPDRFSGSGSGTDFTLKISRVEAEDLGVYYCFQGSHVPWTFGGGTKLEIK
modifications: PR302309-1 VH, PR302309-2 VH, PR302309-3 VH, PR302309-4 VH,PR302309-5 VH, PR302309-6 VH, PR302309 VH; PR302309-13 VL, PR302309-14 VL, PR302309-15 VL, PR302309-16 VL,PR302309 VL
B8: in the assay with biotinylated CRH, the “kdis” value came to 4.03e-06 s⁻¹ and the “kon” value is 263000 M⁻¹ s⁻¹.

Values taken from US20260042834A1, “ANTI-CORTICOTROPIN-RELEASING HORMONE ANTIBODIES AND POLYCYSTIC OVARY SYNDROME” (HBM ALPHA THERAPEUTICS, INC., priority 2022, published 2026).
